Test results from US5064430A, “Polynonapeptide bioelastomers having an increased elastic modulus” (UAB Research Foundation, priority 1989, dated 1991).
Read-outs that look alike come from different tables or passages of the source. Ends that are not written are not given here.

What was measured:
[1] = Thermoelasticity studies (elastomeric force as a function of temperature); type: physicochemical; conditions: γ-irradiation cross-linked (20 Mrad), fixed extension (40%), in water
Protocol: Thermoelasticity studies were carried out on a stress-stain instrument built in this Laboratory. The sample is mounted in two Delrin clamps. The top clamp is attached to a Statham UTC strain-gauge and the assembly is fixed. The bottom clamp is attached to a moving platform driven by a variable speed motor. Both clamps are enclosed in a thermostated water jacket. An inner chamber contains the solvent in which the elastomer is immersed which in this case is doubly distilled water. The sample was fixed in the top clamp and equilibrated in water at 60° C. for about an hour. The strain-gauge signal conditioner was balanced for zero force and the bottom clamp was attached to the sample. The sample was left to set overnight at room temperature. The bottom clamp was then adjusted for zero force and the distance between the clamps was measured. The elastomer was elongated to 40% extension at 5° C. and elastomeric force was then determined as a function of temperature. Equilibrium time to achieve constant force at a given temperature was typically twenty-four hours. Force measurements were made in 2° C. increments through the sharp rise in force and 5° C. increments at higher temperatures.
Thermoelasticity studies were carried out on a stress-strain apparatus. Clamping of the sample in the holder was done in two stages to prevent damage to the material at the clamp edge. The sample was first gripped lightly with the top clamp, raised to 60° C. while submerged in water within the temperature jacket and allowed to equilibrate for about 2 hours. The measured force consisting of the weight of the sample and grips in water were set to zero. The bottom grip was then attached to the sample and both grips tightened to hold the sample firmly. The bottom clamp was driven as in a stress-strain measurement and stopped at 40% elongation. Force data were recorded in 5° C. steps starting at 70° C. and continuing to 40° C. where the force approached zero.

[2] = Temperature profiles of turbidity formation / coacervation (light scattering at 300 nm); type: physicochemical; conditions: for onset of aggregation (coacervation): high molecular weight polymer in water; for midpoint of the temperature profile of turbidity formation / coacervation: 40 mg/ml (high concentration limit)
Protocol: FIG. 3 illustrates temperature profiles of turbidity (TP.tau.) data for poly(VPGFGVGAG) at 40 mg/ml and 1 mg/ml concentrations in H2 O. The aggregational process was monitored by measuring light scattering at 300 nm as a function of temperature using a Cary 14 recording spectrophotometer.
The temperature dependence for aggregation of the polypentapeptide is followed as the development of turbidity at 300 nm using a Cary 14 spectrophotometer. The sample cell is placed within a chamber vibrating at 300 Hz in order to facilitate equilibrium and to keep the aggregates from settling. The scan rate is 30° C./hour and the temperature was controlled with a Neslab ETP-3 programmer and monitored with an Omega 199A thermocouple monitor placed at the cell. The turbidity as a function of temperature provides a temperature profile for coacervation which is found to be concentration dependent. As the concentration is raised, the profile shifts to lower temperatures until further increases in concentration cause no further lowering of the temperature for aggregation. This defines the high concentration limit. The temperature for the onset of coacervation at the high concentration limit coincides with the temperature for the onset of the transition within the coacervate itself, even when there is no appreciable change in water content of the coacervate. […] When the midpoint is 25° C. for the PPP, the molecular weight is close to 100,000 daltons as calibrated by dialysis. For the Ile^1 -PPP with a midpoint of 9° C., the molecular weight is greater than 50,000 daltons, as the synthetic polypeptide was retained by a 50,000 daltons dialysis membrane. The dialysis was carried out at 4° C. where the Ilel-PPP is in solution.
Polypeptide coacervation in water is reversible aggregation to form a new phase with a distinct composition. Association occurs on raising the temperature, disassociation on lowering the temperature. The process of coacervation was followed by monitoring the turbidity as a function of temperature using a Cary 14 spectrophotometer set at 300 nm, a Neslab ETP-3 temperature programmer with a 30° C./hour scan rate and an Omega 199A thermocouple monitor. The sample cell was placed in a vibrating chamber (300 Hz) to keep the aggregates from settling and to facilitate equilibrium. The temperature profiles for coacervation are concentration dependent. Dilution from a high concentration, after the high concentration limit is reached (approximately 40 mg/ml for high molecular weight elastomeric polypeptides), results in a shift of the turbidity profile to higher temperature.

[3] = high molecular weight, cross-linked by γ-irradiation (background); cited from earlier work
[4] = Solubility in water as a function of temperature; type: physicochemical
fibroblasts = test: Checkerboard assay of Zigmond and Hirsch (chemotaxis) with fibroblasts; type: cell-based
Source text: The chemotaxis of the present polynonapeptide towards fibroblasts and endothelial cells can be determined and verified by the well known checkerboard assay of Zigmond and Hirsch. […] Checkerboard analysis of AGVPGFGVG and GFGVGAGVP sequences with fibroblasts using the procedure as described above afforded the following results which are represented graphically in Tables I and II.

[5] = Stress/strain studies of γ-irradiation cross-linked matrices (elastic modulus); type: physicochemical; conditions: 25 Mrad cross-linking dose

| Substance | temperature of essentially full elastic contraction / maximal elastomeric force [1] | onset of aggregation (coacervation) [2] [°C] | midpoint of the temperature profile of turbidity formation / coacervation ([2]; in water) | elastic modulus [3] | temperature below which soluble in water [4] | Checkerboard analysis with fibroblasts, positive control (fibroblasts; PDGF at 30 μg/ml (Table II experiment)) | Checkerboard analysis with fibroblasts, positive control (fibroblasts; PDGF at 60 μg/ml (Table I experiment)) | elastic modulus [5] | midpoint of the temperature profile of turbidity formation ([2]; in water, 1 mg/ml) |
| --- | --- | --- | --- | --- | --- | --- | --- | --- | --- |
| (Val-Pro-Gly-Val-Gly)n (VPGVG; also: polymer of repeating pentamer, (VPGVG)n) [PPP, reference compound] | 40 °C | 24 | 25 °C | ~10^6 dynes/cm^2 |  |  |  |  |  |
| H-(Gly-Gly-Val-Pro)n -OH (H-GGVP-OH; also: repeated n times (polymer)) [PTP] | ~70 °C | 48 | 49 °C |  | below 40 °C |  |  |  |  |
| H-(Gly-Val-Gly-Ile-Pro)n -OH (H-GVGIP-OH; also: polymer, (GVGIP) repeated n times) [Ile^1 -PPP] | about 25 °C | ~8 | 9 °C |  | below 8 °C |  |  |  |  |
| PDGF |  |  |  |  |  | 59 | 21 |  |  |
| Poly[Ala-Gly-Val-Pro-Gly-Phe-Gly-Val-Gly]-OH [poly(VPGFGVGAG)] |  |  | about 8 °C |  | below 5 °C |  |  | 10^8 dynes/cm^2 | about 11 °C |
